Laboratory results as given in publication PMC3462190, “A Peptidic Unconjugated GRP78/BiP Ligand Modulates the Unfolded Protein Response and Induces Prostate Cancer Cell Death” (PLoS ONE, 2012).
Where no end group is shown, it is not given here.

Legend:
BPH-1 cells = test: Clonogenic assay; assay type: cell-based, Human; settings: benign prostate cells, 19-mer vector vs control; at least three experiments
Experimental: Figure 6 Selectivity of action of the Bag-1 peptide. A Amino acid sequence of the 19mer peptide and its deletion mutants. B GST pull-down assay performed incubating 400 µg of 22Rv.1 cell lysate and 25 µg of GST-fused deletion mutants of the 19mer peptide. After the pull-down experiment, Western blots were carried out with anti-GRP78/BiP and GST antibodies. C. Fluorescence polarization (FP) assays with a 10 nM FITC-labeled 7-mer Bag-1 peptide and dilutions of the GST-fused substrate binding domain of GRP78 in 60 µl of Tris-GSH buffer (50 mM Tris, 10 mM reduced glutathione and 0.1% BSA, pH 8.0). Triplicate samples were measured after 5 h of incubation at room temperature with an Infinite F-200 reader (Tecan) with excitation at 490 nm and emission at 535 nm. Binding constants were determined from three independent experiments using non-linear regression in Sigma Plot 10.0. D. Competition assays with a complex of 10 nM of FITC-labeled Bag-1 7-mer peptide and 0.75 mg/ml GST-fused GRP78 substrate binding domain was measured against a dilution series from 100 µM to 0.1 nM of wild-type Bag-1 7-mer peptide (filled line) or triple mutant peptide (dotted line) in 40 µl of Tris-GSH buffer. […] Fluorescence polarization was determined as described above and IC50 values were determined in Sigma Plot. […] The colonies were stained and quantified. […]

22Rv.1 cells = test: CellTiter-Blue proliferation/viability assay; assay type: cell-based; settings: 22Rv.1 clones P25, P29 and P42 vs vector clones V18, V19 and V33; no ER stress; 2 days; at least four independent experiments, p<0.05
Experimental: CellTiter-Blue® cell viability assay kit (Promega) was used for the determination of cell viability. Briefly 22Rv.1 cells stably overexpressing the Bag-1 peptide were seeded into two 96 well plate (4500 cells/well) and the measurements were performed in triplicate. One plate was analyzed at day 0 and the other plate, 2 days later. Three hours after seeding, 20 µl of dye were added to each well containing 100 µl of culture medium and incubated for 4 h at 37°C. Fluorescence was measured by the plate-reading fluorometer FluoStar Optima (2001, BMG Labtechnology, software version 1.10–0) and presented as the ratio of the value at the excitation wavelength (560 nm) over the emission wavelenght (590 nm). Cell proliferation was determined from the difference between the fluorescence intensity at the final time point and the value obtained at the day of seeding of the cells (day 0).
Figure 4 The Bag-1 peptide inhibits prostate cancer cell growth in vivo. A. Stable clones of 22Rv.1 cells show reduced cell viability in vitro. […] Tumor size was measured once per week using a caliper and expressed as tumor volume in mm^3. […] Nuclei are stained blue-purple with hematoxylin while apoptotic cells detected with the TUNEL assay are stained brown. […]

GADD45 = test: Interaction with GADD45 (results not shown); assay type: binding
LNCaP xenograft tumor = test: LNCaP tumor xenograft study; assay type: in vivo, athymic nude mice; settings: mean and SD of 4–10 tumors
Experimental: All animal experiments were performed according to European and German statutory regulations. For generation of xenograft models 5×10^6 LNCaP cells were resuspended in a solution of 50% Matrigel® (BD Bioscience, Heidelberg, Germany) in PBS or 5×10^6 22Rv.1 cells in 100 µl of PBS were subcutaneously injected into both flanks of 6–8 week-old athymic nude mice. Tumor size was measured with a caliper every week. Tumors derived from the […], […] Tumor size was assessed measuring three perpendicular diameters according to the formula: V = (1/6) [π] (d1d2d3), where π is a mathematic constant and d1, d2 and d3 represent the three spatial dimensions (width, depth and height). Mice were euthanized by cervical dislocation and the tumors removed for further analysis.

Molecule: 19-mer: Bag-1L 202–220 (TPLSALGIQDGCRVMLIGK; not fully specified)
- BPH-1 growth in clonogenic assay (BPH-1 cells): not growth inhibited

B1: Bag-1 peptide: internal sequence of 68 amino acids of Bag-1 (Bag1-L 202–269), HA-tagged, expressed from pcDNA3 (peptide)
chain: TPLSALGIQDGCRVMLIGKKNSPQEEVELKKLKHLEKSVEKIADQLEELNKELTGIQQGFLPKDLQAE
modifications: also: HA tag, end not given here
- proliferation (22Rv.1 cells): significantly reduced proliferation
- interaction with GADD45 (GADD45): interact with GADD45
- Tumor weight, clone P12 (LNCaP xenograft tumor; LNCaP clone P12, termination 8 weeks, vector V82 0.65±0.29 g (8 weeks)): 0.04 ± 0.03 g
- Tumor weight, clone P35 (LNCaP xenograft tumor; LNCaP clone P35, termination 6 weeks, vector V69 0.22±0.03 g (6 weeks)): 0.05 ± 0.01 g
